This is an account of results in patent publication US20040071712A1.

The assay deals with human mpl receptor (c-Mpl, the TPO receptor) (human) (UniProt P40238). In words: cell-based or functional assay.
On to IEGPTLRQWLAARAGGGGGGGGGGIEGPTLRQWLAARA [TMP-(G)n-TMP, n = 10 (peptide 11)], for which the increase in potency as compared to the monomer (cell proliferation assay) is greater than 1000 fold. The same measure, in the same setting: in the case of IEGPTLRQWLAARAGGGGGGGGIEGPTLRQWLAARA [TMP-(G)n-TMP, n = 8 (peptide 9)] it was greater than 1000 fold; in that of IEGPTLRQWLAARAGGGGGIEGPTLRQWLAARA [TMP-(G)n-TMP, n = 5 (peptide 6)], greater than 1000 fold; in that of IEGPTLRQWLAARAGGGIEGPTLRQWLAARA [TMP-(G)n-TMP, n = 3 (peptide 4)], greater than 1000 fold. On the same count and under the same terms, in the case of IEGPTLRQWLAARAGGGGIEGPTLRQWLAARA [TMP-(G)n-TMP, n = 4 (peptide 5)] it was greater than 1000 fold.

With IEGPTLRQWLAARAGPNGIEGPTLRQWLAARA [TMP-GPNG-TMP (peptide 13)], the loss of activity against the equivalent GGGG-linked analog (cell proliferation assay) is greater than 10 fold and the potency as compared to the monomer (cell proliferation assay) worked out at 100 fold. In turn, IEGPTLRQWLAARAGGGGGGIEGPTLRQWLAARA [TMP-(G)n-TMP, n = 6 (peptide 7)] came in with an increase in potency as compared to the monomer (cell proliferation assay) greater than 1000 fold. Same read-out and setting: to IEGPTLRQWLAARAGGGGGGGGGGGGGGIEGPTLRQWLAARA [TMP-(G)n-TMP, n = 14 (peptide 12)] belongs greater than 1000 fold; to IEGPTLRQWLAARAGGIEGPTLRQWLAARA [TMP-(G)n-TMP, n = 2 (peptide 3)], greater than 1000 fold; to IEGPTLRQWLAARAGIEGPTLRQWLAARA [TMP-(G)n-TMP, n = 1 (peptide 2)], greater than 1000 fold.

Consider IEGPTLRQWLAARAGGGGGGGIEGPTLRQWLAARA [TMP-(G)n-TMP, n = 7 (peptide 8)], for which the increase in potency as compared to the monomer (cell proliferation assay) was greater than 1000 fold. As for IEGPTLRQWLAARAIEGPTLRQWLAARA [TMP-(G)n-TMP, n = 0 (peptide 1)], the increase in potency as compared to the monomer (cell proliferation assay) was greater than 1000 fold. Still for that read-out and setting: to IEGPTLRQWLAARAGGGGGGGGGIEGPTLRQWLAARA [TMP-(G)n-TMP, n = 9 (peptide 10)] belongs greater than 1000 fold.
